Data taken from patent publication EP4755916A1.

What was measured:
[1] = molecular target: human BTN3A1 recombinant protein with his tag (h-BTN3A1-his) (human) (UniProt O00481); experiment: ELISA, plate coated with h-BTN3A1-his 1 ug/mL, B cell supernatant
[2] = molecular target: human BTN3A1 expressed on HEK293 cells (human) (UniProt O00481); experiment: flow cytometry, HEK293 cells transiently expressing human BTN3A1, B cell supernatant
[3] = molecular target: BTN3A protein on SKOV-3 cells; experiment: cell-based or functional assay

human BTN3A1 expressed on HEK293 cells (human), sequence (O00481 30-513): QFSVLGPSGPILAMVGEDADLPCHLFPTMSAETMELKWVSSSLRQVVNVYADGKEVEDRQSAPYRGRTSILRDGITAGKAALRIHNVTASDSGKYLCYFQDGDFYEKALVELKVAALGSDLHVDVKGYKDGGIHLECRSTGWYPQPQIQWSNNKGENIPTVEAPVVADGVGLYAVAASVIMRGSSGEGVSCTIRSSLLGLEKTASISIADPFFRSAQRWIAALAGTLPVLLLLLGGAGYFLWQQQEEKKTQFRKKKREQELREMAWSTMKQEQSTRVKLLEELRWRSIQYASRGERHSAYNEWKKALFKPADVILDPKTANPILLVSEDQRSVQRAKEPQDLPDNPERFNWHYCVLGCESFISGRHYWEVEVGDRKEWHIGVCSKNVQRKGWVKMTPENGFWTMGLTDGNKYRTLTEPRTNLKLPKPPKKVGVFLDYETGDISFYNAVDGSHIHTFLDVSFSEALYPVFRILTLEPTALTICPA
human BTN3A1 recombinant protein with his tag (h-BTN3A1-his) (human), sequence (O00481 30-254 limits assumed): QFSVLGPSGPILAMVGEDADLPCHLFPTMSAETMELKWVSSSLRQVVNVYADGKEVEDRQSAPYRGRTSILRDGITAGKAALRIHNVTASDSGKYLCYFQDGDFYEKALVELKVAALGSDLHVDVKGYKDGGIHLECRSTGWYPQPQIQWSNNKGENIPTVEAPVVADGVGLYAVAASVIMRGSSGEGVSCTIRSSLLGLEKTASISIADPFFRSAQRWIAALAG

B1: anti-BTN3A1 rabbit-derived monoclonal antibody r20A3 (antibody, V domains shown)
VH: QSVEESGGRLVTPGTPLTLTCTASGFTINNYYMNWVRQAPGKGLEWIGIIYGSDNTYYASWAKGRFTISKTSTTVDLIMTSPTTEDTATYFCVRNLDYSSAYFHIWGPGTLVTVSS
VL: QVLTQTPSPVSAAVGGTVSISCQASQSVYNNNRLAWYQQKPGQPPNLLIYEASKLASGVPSRFKGSGSGTQFTLIISEVQCEDAATYYCQGYYSGFIYPFGGGTEVVVK
ELISA (OD 450) [1]: 2.1 OD450
MFI [2]: 190000 MFI
Percentage (%) [2]: 98.3%

B2: anti-BTN3A1 rabbit-derived monoclonal antibody r17G4 (antibody, V domains shown)
VH: QSLEESGGRLVTPGTPLTLTCTASGFSLNDYYITWVRQAPGKGLEWIGVIYGSSNTVYASWAKGRFTISKTSTMVDLRITSPTTEDTATYFCARGYLASSADIWGPGTLVTVSL
VL: QVLTQTPSPVSAAVGGTVTINCQSSQSVYNNNRLAWYQQKPGQPPKLLIYDASTLASGVPSRFKGSGSGTDFTLTISDLECADAATYYCQTYYSGYIWAFGGGTEVVVK
ELISA (OD 450) [1]: 1.84 OD450
MFI [2]: 444000 MFI
Percentage (%) [2]: 99%

B3: 20A3-H2L2 (antibody, human IgG1, kappa)
heavy: EVQLVESGGGLVQPGGSLRLSCAASGFTINNYYMNWVRQAPGKGLEWVSIIYGSDNTYYASWAKGRFTISKDNSKNTVYLQMNSLRAEDTAVYYCVRNLDYSSAYFHIWGQGTLVTVSSASTKGPSVFPLAPSSKSTSGGTAALGCLVKDYFPEPVTVSWNSGALTSGVHTFPAVLQSSGLYSLSSVVTVPSSSLGTQTYICNVNHKPSNTKVDKRVEPKSCDKTHTCPPCPAPEFEGGPSVFLFPPKPKDTLMISRTPEVTCVVVDVSHEDPEVKFNWYVDGVEVHNAKTKPREEQYNSTYRVVSVLTVLHQDWLNGKEYKCKVSNKALPASIEKTISKAKGQPREPQVYTLPPSREEMTKNQVSLTCLVKGFYPSDIAVEWESNGQPENNYKTTPPVLDSDGSFFLYSKLTVDKSRWQQGNVFSCSVMHEALHNHYTQKSLSLSPGK
light: DIQLTQSPSSLSASVGDRVTITCQASQSVYNNNRLAWYQQKPGKPPKLLIYEASKLASGVPSRFSGSGSGTDFTLTISSLQPEDVATYYCQGYYSGFIYPFGGGTKVEIKRTVAAPSVFIFPPSDEQLKSGTASVVCLLNNFYPREAKVQWKVDNALQSGNSQESVTEQDSKDSTYSLSSTLTLSKADYEKHKVYACEVTHQGLSSPVTKSFNRGEC
EC50 of IFNγ secretion by Vγ9Vδ2 T cells co-cultured with SKOV-3 cells [3]: 284 pM
Maximum IFNγ (pg/mL), Vγ9Vδ2 T cells co-cultured with SKOV-3 cells [3]: 2470 pg/mL
